In patent publication US20060021091, “Maize bZIP transcription factors and genes encoding the same and use thereof” (published 2006):

B1: ABRE (dsDNA)
DNA 1: GAAGTCCACGTGGAGGTGG
DNA 2: TCCCACCTCCACGTGGACT
B2: mABRE (dsDNA)
DNA 1: GAAGTAACATGTTCGGTGG
DNA 2: TCCCACCGAACATGTTACT

Key:
Conditions in all cases: tags: GST (pGEX4T-1); label: 32P 5' end (EMSA); annealed oligos with 3-nt overhangs, ligated as 4mer
ABP2 [1] = biological target: T1, ABP2 (Zea mays); assay: EMSA; 25 mM HEPES-KOH pH 7.6, 50 mM KCl, 10% glycerol, DTT, on ice
T1 chain: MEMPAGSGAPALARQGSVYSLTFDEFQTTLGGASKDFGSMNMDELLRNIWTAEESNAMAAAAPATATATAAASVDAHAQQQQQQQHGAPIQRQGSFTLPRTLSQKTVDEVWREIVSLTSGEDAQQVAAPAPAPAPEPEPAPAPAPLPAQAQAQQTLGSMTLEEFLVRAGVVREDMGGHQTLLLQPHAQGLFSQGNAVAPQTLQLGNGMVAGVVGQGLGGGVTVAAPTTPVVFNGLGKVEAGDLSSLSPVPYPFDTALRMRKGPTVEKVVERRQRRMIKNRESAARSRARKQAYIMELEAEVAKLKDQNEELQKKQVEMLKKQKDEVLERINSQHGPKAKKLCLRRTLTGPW
Experimental: (§1) Add 4 μl of 5×binding buffer (125 mM HEPES-KOH pH7.6, 50% glycerol, 250 mM KC1). Add 4 μg (9 μl) of each of the proteins ABP2, ABP4, ABP9 and GST. Add 1 μl of 1M DTT, 1 μl of probe of the above-labeled ABRE (or InABRE) and 4 μl of H₂O. Incubate on ice for 30 minutes. Add 3 μl of sample buffer (0.025% bromophenol blue in sterile H₂O) and perform polyacrylamide gel eletrophoresis analysis.
(§2) Set up the gel mixture of 9 ml of 30% acrylamide, 5 ml of 10×eletrophoresis buffer (142.7 g/L glycin, 3.92 g/L EDTA, 30.28 g/L Tris), 2.5 ml of 50% glycerol, 33 ml of deionized water, 400 μl of 10% APS, and 25 μl of TEMED. After completion of polymerization, perfom gel eletrophoresis with 1×eletrophoresis buffer, including pre-running for 10 minutes (300V), loading the samples and eletrophoresis for 1 hour (300V). Stick the gel with filter paper to peel off. Seal the peeled gel with Saran wrap and expose to X ray film for 1 hour. Wash the film, develop for 2 minutes and fix for 5 minutes. […] This means that the products of the genes ABP2, ABP4, and ABP9 also have the ABRE binding specificity in vitro.

ABP9 [2] = biological target: T2, ABP9 (Zea mays); assay: as above
T2 chain: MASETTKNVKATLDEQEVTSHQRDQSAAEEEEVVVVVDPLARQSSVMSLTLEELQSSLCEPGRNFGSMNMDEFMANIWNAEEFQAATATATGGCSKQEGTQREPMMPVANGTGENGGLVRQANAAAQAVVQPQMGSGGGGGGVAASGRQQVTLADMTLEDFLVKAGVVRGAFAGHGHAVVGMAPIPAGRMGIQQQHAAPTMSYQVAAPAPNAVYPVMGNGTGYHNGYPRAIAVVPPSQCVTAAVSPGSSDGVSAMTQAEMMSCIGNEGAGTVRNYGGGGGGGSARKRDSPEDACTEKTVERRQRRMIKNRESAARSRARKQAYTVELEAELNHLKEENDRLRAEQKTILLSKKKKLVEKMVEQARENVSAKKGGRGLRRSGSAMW
Experimental: as §1, §2

ABP4 [3] = biological target: T3, ABP4 (Zea mays); assay: as above
T3 chain: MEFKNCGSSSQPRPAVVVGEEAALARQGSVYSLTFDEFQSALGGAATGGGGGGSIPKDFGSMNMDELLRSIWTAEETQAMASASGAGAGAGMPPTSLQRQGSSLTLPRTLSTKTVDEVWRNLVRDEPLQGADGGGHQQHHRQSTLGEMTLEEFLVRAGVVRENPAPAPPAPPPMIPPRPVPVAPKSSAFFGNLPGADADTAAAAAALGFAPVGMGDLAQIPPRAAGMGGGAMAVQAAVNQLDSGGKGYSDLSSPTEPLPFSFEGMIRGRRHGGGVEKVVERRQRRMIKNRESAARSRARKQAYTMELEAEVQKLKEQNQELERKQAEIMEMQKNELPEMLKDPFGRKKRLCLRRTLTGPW
Experimental: as §1, §2

ABP2 [4] = biological target: T1, ABP2; assay: EMSA; no retarded band
Experimental: as §1, §2

ABP9 [5] = biological target: T2, ABP9; assay: EMSA; no retarded band
Experimental: as §1, §2

ABP4 [6] = biological target: T3, ABP4; assay: EMSA; no retarded band
Experimental: as §1, §2

Row | Binder | binding result (ABP2 [1]) | binding result (ABP9 [2]) | binding result (ABP4 [3]) | binding result (ABP2 [4]) | binding result (ABP9 [5]) | binding result (ABP4 [6])
1 | B1 | binds | binds | binds |  |  | 
2 | B2 |  |  |  | no binding | no binding | no binding
